From patent US7026446
Several values for one entry are separate records, joined by “and”; a condition that tells them apart may be missing. Identical values can stand only once.

How the values were obtained:
[1] = target: biotinylated mouse anti dengue IgG (clone 13C11); assay: Dengue IgM capture ELISA: Prep B 1.0 µg/ml premixed with 13C11-Biotin 1.6 µg/ml, sheep anti human IgM strips, dengue antigen with anti dengue-HRP tracer
[2] = target: biotinylated mouse anti dengue IgG (clone 13C11); assay: Dengue IgM indirect ELISA: Prep A 1/10 premixed with 13C11-Biotin 1/10,000, dengue 2 antigen plate, HRP sheep anti Human IgM
[3] = target: biotinylated mouse anti dengue IgG (clone 13C11); assay: Dengue IgM indirect ELISA: Prep A 1/1000 premixed with 13C11-Biotin 1/10,000, dengue 2 antigen plate, HRP sheep anti Human IgM
[4] = target: biotinylated mouse anti dengue IgG (clone 13C11); assay: Dengue IgM indirect ELISA: Prep A 1/100 premixed with 13C11-Biotin 1/10,000, dengue 2 antigen plate, HRP sheep anti Human IgM
[5] = target: biotinylated mouse anti dengue IgG (clone 13C11); assay: Dengue IgM capture ELISA: Prep A […] premixed with 13C11-Biotin 1.6 µg/ml, sheep anti human IgM strips, dengue antigen with anti dengue-HRP tracer

Chain of Streptavidin-CH3µ Preparation A (chain): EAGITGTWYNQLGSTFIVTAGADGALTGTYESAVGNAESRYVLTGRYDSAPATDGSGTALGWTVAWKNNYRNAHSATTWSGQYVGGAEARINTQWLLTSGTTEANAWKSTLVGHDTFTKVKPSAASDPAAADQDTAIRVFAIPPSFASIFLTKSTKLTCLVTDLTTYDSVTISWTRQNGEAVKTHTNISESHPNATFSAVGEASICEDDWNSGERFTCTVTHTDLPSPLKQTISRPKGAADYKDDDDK
Chain of Streptavidin-CH3µ Preparation B (chain): as above

A450 [1] | A450 [2] | A450 [3] | A450 [4] | A450 [5] | Substance
1.2 absorbance and 1.34 absorbance | – | – | – | – | Streptavidin-CH3µ Preparation B
– | 1.19 absorbance and 1.11 absorbance | 0.212 absorbance and 0.183 absorbance | 1.07 absorbance and 1.08 absorbance | 1.91 absorbance and 1.85 absorbance | Streptavidin-CH3µ Preparation A
